Laboratory results taken from article PMC10814857, “Functional Classification and Interaction Selectivity Landscape of the Human SH3 Domain Superfamily” (Cells, 2024).
Where two headings read alike, the source gives them in different places.

Assays:
Experiment in all cases: FP
[1] = biological target: P3, fluorescein-labelled proline-rich peptide from the SOS1 proline-rich domain (human) (UniProt Q07889)
[2] = biological target: P7, fluorescein-labelled proline-rich peptide from the SOS1 proline-rich domain (human) (UniProt Q07889)
[3] = biological target: RP1, fluorescein-labelled reference peptide, a SOS1 derivative encompassing part of P3 (human) (UniProt Q07889)
[4] = biological target: P5, fluorescein-labelled proline-rich peptide from the SOS1 proline-rich domain (human) (UniProt Q07889)
[5] = biological target: P4, fluorescein-labelled proline-rich peptide from the SOS1 proline-rich domain (human) (UniProt Q07889)
[6] = biological target: RP2, fluorescein-labelled reference peptide from the N-terminal extension of the RHO GTPase WRCH1/RHOU (human) (UniProt Q7L0Q8)
Chain of RP2, fluorescein-labelled reference peptide from the N-terminal extension of the RHO GTPase WRCH1/RHOU (human) (Q7L0Q8 whole entry, looked up, the tested form may be a part): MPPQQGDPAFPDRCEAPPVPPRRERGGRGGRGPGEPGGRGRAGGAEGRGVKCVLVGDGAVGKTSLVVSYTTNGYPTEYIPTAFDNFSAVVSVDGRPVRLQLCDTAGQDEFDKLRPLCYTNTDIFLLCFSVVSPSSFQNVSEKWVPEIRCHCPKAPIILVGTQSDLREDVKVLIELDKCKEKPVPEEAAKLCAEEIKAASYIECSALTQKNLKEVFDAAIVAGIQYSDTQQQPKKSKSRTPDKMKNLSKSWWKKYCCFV

[7] = biological target: P1, fluorescein-labelled proline-rich peptide from the SOS1 proline-rich domain (human) (UniProt Q07889)
[8] = biological target: P2, fluorescein-labelled proline-rich peptide from the SOS1 proline-rich domain (human) (UniProt Q07889)

Chain of CRK-1 SH3 domain, GST cleaved (P46108 127-301): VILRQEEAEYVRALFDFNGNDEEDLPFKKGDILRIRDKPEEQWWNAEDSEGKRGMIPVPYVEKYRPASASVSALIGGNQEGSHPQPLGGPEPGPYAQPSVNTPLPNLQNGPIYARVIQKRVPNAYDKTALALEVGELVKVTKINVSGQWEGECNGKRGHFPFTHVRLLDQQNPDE

| Kd [3] [µM] | Kd [1] [µM] | Kd [5] [µM] | Kd [6] [µM] | Kd [2] [µM] | Substance | other results |
| --- | --- | --- | --- | --- | --- | --- |
| – | – | – | – | – | CRK-1 SH3 domain, GST cleaved (from UniProt P46108) | Kd ([1]; domain or fragment): 12.9 µM; Kd ([2]; domain or fragment): 18.1 µM |
| 11 | 15 | 60 | – | – | GRB2-1 | Kd [4]: 62 µM |
| 3.4 | 12 | 20 | – | – | GRB2-2 | Kd [4]: 35 µM |
| 39 | – | 6.6 | 11 | – | ITSN1-1 | – |
| – | – | 12 | 23 | – | ITSN1-5 | Kd [7]: 23 µM |
| – | – | – | – | 15 | RIMBP3B-1 | Kd [8]: 21 µM |
| – | 18 | – | 21 | – | SH3PXD2A-1 | Kd [8]: 44 µM |
| – | – | – | – | 13.2 | SORBS1-1 | – |
| – | 2 | – | – | 13.3 | SRC | – |
